Data on five molecules can be found in patent publication US20230303667A1 (EMORY UNIVERSITY, published 2023).

In this experiment the target is T1, Ebola Zaire (Kikwit strain) glycoprotein (Ebola Zaire (Kikwit strain), UniProt P87666 33-676).
T1 sequence: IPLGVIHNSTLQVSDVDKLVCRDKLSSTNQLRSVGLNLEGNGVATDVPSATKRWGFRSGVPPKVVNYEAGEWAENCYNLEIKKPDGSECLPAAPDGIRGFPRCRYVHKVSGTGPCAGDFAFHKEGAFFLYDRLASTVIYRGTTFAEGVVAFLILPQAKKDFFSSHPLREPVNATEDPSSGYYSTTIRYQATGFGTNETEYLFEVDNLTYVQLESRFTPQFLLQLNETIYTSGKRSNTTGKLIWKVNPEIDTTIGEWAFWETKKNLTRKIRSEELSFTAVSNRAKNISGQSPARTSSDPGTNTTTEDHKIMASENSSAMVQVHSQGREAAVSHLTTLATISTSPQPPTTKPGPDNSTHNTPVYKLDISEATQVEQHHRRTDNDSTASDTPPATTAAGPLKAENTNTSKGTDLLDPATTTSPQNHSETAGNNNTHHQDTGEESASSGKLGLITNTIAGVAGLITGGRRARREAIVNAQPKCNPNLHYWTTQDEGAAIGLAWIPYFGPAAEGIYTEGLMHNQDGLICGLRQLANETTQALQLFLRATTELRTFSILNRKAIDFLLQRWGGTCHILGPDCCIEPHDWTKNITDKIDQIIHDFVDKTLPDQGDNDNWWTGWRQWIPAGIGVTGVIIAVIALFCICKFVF
The experiment can be described thus: cell-based or functional assay.

B1: 2.1.1D07 (antibody, V domains shown)
VH: EVQLLESGGGLVQPGGSLRLSCAASGFTFSTYGMSWVRQAPGKGLEWVSGISGSGGITYYADSVRGRFTISRDNSKNTLYLRMNSLRAEDTAVYYCAKVGEYYDFWSGYSPFEYWGQGTL
VL: EIVLTQSPGTLSLSPGERATLSCRASQSVSSSYLAWYQQKPGQAPRLLIYGAFNRATGIPDRFSGSGSGTDFTLTISRLEPEDFAVYYCQLYGSSPWTFGQGTKVEIK
Turning to B1, the “PRNT50 (ug/ml) for Ebola Zaire (Kikwit strain)” value (from here on “PRNT50 (ug/ml) for Ebola Zaire”) was 6.25 µg/mL.

B2: 5.1.10B3 (antibody, V domains shown)
VH: EVQLVESGGGLVQPGGSLRLSCAASGFTFRSYDMHWVRQATGKGLEWVSAIGTAGDTYYPGSVKGRFTISRENAKNSLYLQMNSLRAEDTAVYYCARVRFGDTAVDYWGQGTLVTVSS
VL: DIQMTQSPSSLSASVGDRVTITCRASQSISSFLNWHQQKPGKAPKLLIYAASSLQSGVPSRFSGSGSGTDFTLTISSLQPEDFAIYYCQQSYISPFTFGPGTKVDIK
For B2, the “PRNT50 (ug/ml) for Ebola Zaire” value was found to be 3.13 µg/mL.

B3: 2.1.1D05 (antibody, V domains shown)
VH: EVQLVESGGGLVKPGGSLRLSCAASGFTFSNAWMNWVRQAPGKGLEWVGRIKSKTDGGAADYAAPVKGRFTISRDDSKNTLYLQMNSLKTEDTAVYFCTTVYRYNYDSVWGQGTLVTVSS
VL: QSVLTQPPSVSGAPGQRVTISCTGSSSNIGAGYDVYWYQQLPGTAPKLLIYGNSNRPSGVPDRFSGSKSGTSASLAITGLQAEDEADYYCQSFDSSLRDSWVFGGGTKLTVL
For B3, the “PRNT50 (ug/ml) for Ebola Zaire” value was 3.13 µg/mL.

B4: 5.6.1A02 (antibody, V domains shown)
VH: EVQLVESGGGLIQPGGSLRLSCAASGFAVRSNYLSWVRQAPGKGLEWVSLIYSGGLTAYADSVEGRFTISRDNSKNTLYLQMNSLRVEDTALYYCARVASSAGTFYYGMDVWGQGTTVTVSS
VL: not shown
Regarding B4, the “PRNT50 (ug/ml) for Ebola Zaire” value turned out to be 0.195 µg/mL.

B5: 9.6.3D06 (antibody, V domains shown)
VH: EVQLLESGGGLVQPGGSLRLSCAASGFTFSKYAMIWVRQAPGKGLQWVAGINKSGGRTYYADSVRGRFTISRDNSKNTLYLQMKSLRADDTAMYYCAKEGSPLSDVLLVAAPFGWFDPWGQGTLVTVSS
VL: DIQMTQSPSTLSASVGDRVTITCRASQRINNLVAWYQQKPGKAPKVMIYDASSLKSGVPSRFSGSGSGTEFTLTISSLQPDDFATYFCQQYDTDSGWTFGQGTKVEIK
Turning to B5, the “PRNT50 (ug/ml) for Ebola Zaire” value came to 1.57 µg/mL.
